Reference: paper PMC8352940 (Nature Communications, 2021)

Biological target: SARS-CoV-2 RBD-Fc fusion protein (SARS-CoV-2, UniProt P0DTC2)
Experiment: ELISA
Conditions: both partners purified

Binder	fold change in EC50 compared to wild type [fold]
nCoVmab1 (antibody, V domains shown, also called nCoVFab1 in IgG1 format; source: 293F cells, purified (Protein A resin)) VH: QVQLVESGGGLVQPGGSLRLSCAASGFTVSSNYMSWVRQAPGKGLEWVSVIYSGGSTYYADSVKGRFTISRDNSKNTLYLQMNSLRAEDTAVYYCARGDGSDDYYYGMDVWGQGTTVTVSS VL: QSVVTQPPSVSGAQGQRVFISCTGNGANIGMGYDVHWYQQLPGRAPKLLIFGNTNRPSGVPDRFSASRSGTSASLAITGLQTADEADYYCQSYDGNLRASVFGGGTKLTVL	1
nCoVmab2 (antibody, V domains shown, also called nCoVFab2 in IgG1 format; source: 293F cells, purified (Protein A resin)) VH: EVQLVQSGGGVVQPGRSLRLSCAASGFTVSSNYMSWVRQAPGKGLEWVSVIYSGGSTYYADSVKGRFTISRDNSKNTLYLQMNSLRAEDTAVYYCARGDGSDDYYYGMDVWGQGTTVTVSS VL: QAVLTQPSSVSGAPGQRVTISCTGSSSNVGAGYDVHWYQQLPGTAPKLLIYGNSNRPSGVPDRFSGSKSGTSASLAITGLQAEDEADYYCQSYDSSLSGSVFGGGTKLTVL	1
